Patent US20220348659A1 (TWIST BIOSCIENCE, published 2022)

Legend:
[1] = molecular target: CD3 on human CD8+ T cells; assay: flow cytometry titration on CD8+ T cells, MFI against [IgG] nM
[2] = molecular target: CD3 on Jurkat cells; assay: flow cytometry titration on Jurkat cells, MFI against [IgG] nM
[3] = molecular target: CD3 on human CD8+ T cells; assay: flow cytometry titration, MFI against [IgG] nM; cells not named on this panel, the value and the curve are those of the CD8+ T-Cell curve of FIG. 12F
[4] = molecular target: CD3 on human CD8+ T cells; assay: flow cytometry titration, RL1-H MFI against [IgG] nM; cells not named on this panel, the points are those of the CD8+ T-Cell curves of FIGS. 12E-12G
[5] = molecular target: cyno CD3 epsilon (cyno (cynomolgus monkey)) (UniProt Q95LI5); assay: sensorgrams with fits, Response (RLU) against Time (s); instrument not named; species not printed on the panel: cyno by the order of the panels (11I-11K human, 11L-11N cyno, after the text's 67 nM and 107 nM)
[6] = molecular target: T1, human CD3 epsilon (human, UniProt P07766 23-126, limits assumed); assay: sensorgrams with fits, Response (RLU) against Time (s); instrument not named; species not printed on the panel: human by the order of the panels (11I-11K human, 11L-11N cyno, after the text's 67 nM and 107 nM)
T1 construct: Used as a soluble protein target in panning; the construct is not described; also called hCD3; hCD3 epsilon
T1 sequence (P07766 23-126 limits assumed): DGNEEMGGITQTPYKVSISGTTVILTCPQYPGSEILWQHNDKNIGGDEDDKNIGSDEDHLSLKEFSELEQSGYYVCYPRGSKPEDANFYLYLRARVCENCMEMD

[7] = molecular target: T2, cyno CD3 epsilon (cyno (cynomolgus monkey), UniProt Q95LI5 22-117, limits assumed); assay: sensorgrams with fits, Response (RLU) against Time (s); instrument not named; panel shaded grey; species not printed on the panel: cyno by the order of the panels (11I-11K human, 11L-11N cyno, after the text's 67 nM and 107 nM)
T2 construct: Used as a soluble protein target in panning; the construct is not described; also called cCD3; cCD3 epsilon
T2 sequence (looked up): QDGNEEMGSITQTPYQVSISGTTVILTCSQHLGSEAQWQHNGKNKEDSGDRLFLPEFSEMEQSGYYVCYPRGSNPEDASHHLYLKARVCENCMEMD

[8] = molecular target: T2, cyno CD3 epsilon; assay: flow cytometry on Expi293 cells overexpressing cynoCD3e, antibody at 100 nM; bar = MFI ratio (OE/parent)
[9] = molecular target: T1, human CD3 epsilon; assay: flow cytometry on Expi293 cells overexpressing hCD3e, antibody at 100 nM; bar = MFI ratio (OE/parent), 1 = parent cells
[10] = molecular target: T1, human CD3 epsilon; assay: method not stated; human CD3 epsilon

Sequence of CD3 on human CD8+ T cells (chain, as listed by the source limits assumed): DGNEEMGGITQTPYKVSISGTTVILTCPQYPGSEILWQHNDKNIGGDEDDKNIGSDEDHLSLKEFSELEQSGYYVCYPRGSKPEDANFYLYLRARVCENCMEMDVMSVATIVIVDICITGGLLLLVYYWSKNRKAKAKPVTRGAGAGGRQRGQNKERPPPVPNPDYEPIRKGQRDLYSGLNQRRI

Question: With R&D MAB100 (antibody) as the molecule, how does the EC50 [1] read?
Answer: Its EC50 is 3.05 nM.

Question: What about the EC50 [2] of the same molecule?
Answer: The EC50 was 0.537 nM.

Question: And the EC50 [3]?
Answer: Its EC50 is 3.05 nM.

Question: What about the EC50 (read off the curve) [4] of the same molecule?
Answer: Its EC50 (read off the curve) is 3 nM.

Question: What does the source list for muSP34 (antibody)?
Answer: Kd [5]: 38 nM; Kd [6]: < 0.0019 nM

B1: CD3-56-11 (antibody, V domains shown)
VH: EVQLLESGGGLVQPGGSLRLSCAASGFRFSTYAMNWVRQAPGKGLEWVSGISGSGGSKYHADSVKGRFTISRDNSKNTLYLQMNSLRAEDTAVYYCARDSLTTRGYYYYMDVWGQGTLVTVSS
VL: DIQMTQSQSSLSASVGDRVTITCRASQSIRTSLNWYQQKPGKAPKLLIYAASRLQSGVPSRFSGSGSGTDFTLTISSLQPEDFATYYCQQSYSTLYSFGGGTKVEIK
Question: Which results are given for B1?
Answer: Kd [7]: 162000 nM; Kd [6]: 130 nM

B2: CD3-252-5 (VHH)
VHH: EVQLVESGGGLVQPGGSLRLSCAASGRISNINIMGWFRQAPGKEREFVAAISWNSGTTRYADSVKGRFTISADNSKNTAYLQMNSLKPEDTAVYYCASQGPGLYGSGSYLRYWGQGTLVTVSS
notes: also called CD3-252-005
Question: What does the source list for B2?
Answer: binding result [8]: no binding (tested: 100 nM); binding result [9]: binds

B3: CD3-252-10 (VHH)
VHH: EVQLVESGGGLVQPGGSLRLSCAASGRSLYDRAYVMGWFRQAPGKEREFVAAINRSGSALYADSVKGRFTISADNSKNTAYLQMNSLKPEDTAVYYCAAKAVTSRDHEWGQGTLVTVSS
notes: also called CD3-252-010
Question: Does B3 bind [8]?
Answer: Result: no binding (tested: 100 nM)

Question: Does B3 bind [9]?
Answer: Result: binds

B4: CD3-252-22 (VHH)
VHH: EVQLVESGGGLVQPGGSLRLSCAASGNIFTRHIMGWFRQAPGKEREFVAAITNGGSTKYADSVKGRFTISADNSKNTAYLQMNSLKPEDTAVYYCARQDYYDSSGHIRYWGQGTLVTVSS
notes: also called CD3-252-022
Question: Does B4 bind [9]?
Answer: Result: binds

B5: CD3-252-24 (VHH)
VHH: EVQLVESGGGLVQPGGSLRLSCAASGITFKRYVMGWFRQAPGKEREFVAAITNGGSTKYADSVKGRFTISADNSKNTAYLQMNSLKPEDTAVYYCARDLSAGPGKAVYWGQGTLVTVSS
notes: also called CD3-252-024
Question: Does B5 bind [8]?
Answer: Result: no binding (tested: 100 nM)

Question: Does B5 bind [9]?
Answer: Result: binds

B6: CD3-252-29 (VHH)
VHH: EVQLVESGGGLVQPGGSLRLSCAASGTTFRINVMGWFRQAPGKEREFVAAITSSGSSTLYADSVKGRFTISADNSKNTAYLQMNSLKPEDTAVYYCARGGGYHRLWGQGTLVTVSS
notes: also called CD3-252-029
Question: Does B6 bind [8]?
Answer: Result: no binding (tested: 100 nM)

Question: Does B6 bind [9]?
Answer: Result: binds

B7: CD3-56-05 (antibody, V domains shown)
VH: EVQLLESGGGLVQPGGSLRLSCAASGFTFSSYAMNWVRQAPGKGLEWVSAVSGSGGRTYYADSVKGRFTISRDNSKNTLYLQMNSLRAEDTAVYYCARERATTLDYWGQGTLVTVSS
VL: DIQMTQSPSSLSASVGDRVTITCRASQTIYSHLNWYQQKPGKAPKLLIYVASRLQSGVPSRFSGSGSGTDFTLTISSLQPEDFATYYCQQSFSTSWTFGGGTKVEIK
notes: the text speaks of CD3 epsilon IgGs from a Fab library on the DP47 framework; also called CD3-56-5; CD-3-56-5
Question: B7 was tested. Which Kd [10] did it give?
Answer: The Kd was 67 nM.
